Measured values taken from US12364768B2, “Nectin-4 antibody conjugates and uses thereof” (ARARIS BIOTECH AG, priority 2020, dated 2025).

T1: mouse Nectin-4 (Mus musculus, UniProt Q8R007)
T1 sequence (Q8R007 31-508): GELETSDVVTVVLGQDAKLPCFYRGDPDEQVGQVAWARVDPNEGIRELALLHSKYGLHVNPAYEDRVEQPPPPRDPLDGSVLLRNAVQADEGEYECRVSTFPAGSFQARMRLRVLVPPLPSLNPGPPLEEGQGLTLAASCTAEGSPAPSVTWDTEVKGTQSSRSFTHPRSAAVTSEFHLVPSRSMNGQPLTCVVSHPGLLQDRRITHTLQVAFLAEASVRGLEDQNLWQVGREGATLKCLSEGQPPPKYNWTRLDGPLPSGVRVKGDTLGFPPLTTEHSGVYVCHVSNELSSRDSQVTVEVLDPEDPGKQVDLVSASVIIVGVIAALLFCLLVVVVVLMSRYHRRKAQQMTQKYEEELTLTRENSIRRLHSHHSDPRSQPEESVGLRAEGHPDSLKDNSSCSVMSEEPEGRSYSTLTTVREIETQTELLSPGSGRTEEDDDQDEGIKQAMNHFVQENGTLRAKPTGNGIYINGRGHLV

T2: TIGIT binding to Nectin-4 expressing T24 tumor cells (Homo sapiens, UniProt Q96NY8)
T2 construct: expressed in transfected cells; host or cells: T24 clone, lentiviral transduction
T2 sequence (Q96NY8 32-510): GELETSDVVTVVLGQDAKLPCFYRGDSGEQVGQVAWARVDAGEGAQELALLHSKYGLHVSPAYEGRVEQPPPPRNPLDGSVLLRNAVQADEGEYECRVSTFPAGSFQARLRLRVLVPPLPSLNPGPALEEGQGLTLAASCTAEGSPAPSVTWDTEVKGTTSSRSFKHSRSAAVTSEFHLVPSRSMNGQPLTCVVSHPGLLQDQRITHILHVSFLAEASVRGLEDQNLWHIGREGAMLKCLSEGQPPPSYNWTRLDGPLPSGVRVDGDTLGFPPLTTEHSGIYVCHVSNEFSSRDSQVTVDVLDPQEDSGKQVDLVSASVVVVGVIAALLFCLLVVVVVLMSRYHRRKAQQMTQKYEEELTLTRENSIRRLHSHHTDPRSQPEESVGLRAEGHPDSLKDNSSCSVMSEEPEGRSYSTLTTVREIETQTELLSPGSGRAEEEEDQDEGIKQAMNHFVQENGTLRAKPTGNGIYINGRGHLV


Assays:
mouse Nectin-4 = target: T1, mouse Nectin-4; experiment: Binding of purified humanized D6C mAbs to mouse Nectin-4; settings: mAb of hzD6C VH with the named VL
Method: The humanized D6C VH region was combined with human IgG1 (SEQ ID NO:18) heavy chain constant region, and each humanized D6C VL region was combined individually with the human kappa light chain constant region (SEQ ID NO:20). The humanized D6C heavy chain (SEQ ID NO:24) was co-transfected with each humanized light chain (SEQ ID NOS:26-31) individually into CHO cells in a 30 mL culture, using the parental chimeric antibody, D6C, as a benchmark. A total of 7 mAbs were generated, purified, and analyzed for titer, purity, and binding.
Analytical size-exclusion chromatography was used to measure the percent purity (% protein of interest, POI), which is preferably 95% or greater. There was a reduction in percent purity seen with the chimeric D6C (84%) and the CDR grafted hzD6C VL (94%). The I2V, N33Q, and G34A mutations in hzD6.1C VL (98%), hzD6.2C VL (95%), and hzD6.3C VL (96%), respectively, as well as the […] N33Q double mutation hzD6.4C VL (99%), resolve the purity issue.

[1] = target: T2, TIGIT binding to Nectin-4 expressing T24 tumor cells; experiment: Blocking of TIGIT-Fc binding to Nectin-4 expressing T24 tumor cells; assay type: cell-based; settings: rhTIGIT-Fc 40 nM; antibody at various concentrations from 400 nM, 1:2 dilutions
Description: Anti-Nectin-4 antibody was examined to determine whether it could block binding of TIGIT to Nectin-4 expressing T24 tumor cells. Stable Nectin-4 expression in a T24 clone was achieved by Nectin4-lentiviral transduction. Recombinant human TIGIT-Fc chimera was purchased from R & D Systems. Briefly, cell binding was examined on Nectin-4 expressing T24 cells, which were dispensed into wells of V-bottom 96-well assay plates (1×10^5 cells/well), spun down, and the supernatant discarded. The cells were incubated with an anti-Nectin-4 antibody (hzD6.2C-mIgG2a) or an isotype control (mIgG2a) at eight different concentrations, starting with 400 nM and then 1:2 serial dilution, incubated at 4° C. for 30 min., and then rhTIGIT-Fc was added to each well at a final concentration of 40 nM. The treated cells were incubated at 4° C. for 30 min., washed three times, and then commercial PE anti-human Fc as a secondary antibody (1:200 dilution) was added and incubated at 4° C. for 20 min. The cells were washed twice and analyzed on BD Celesta™ flow cytometry. Percent of inhibition of TIGT (40 nM) binding due to anti-Nectin-4 antibody present was measured.

binding to mouse Nectin-4 (mouse Nectin-4) | blocking of TIGIT binding [1] | Molecule
no binding |  | hzD6.3C VL: "CDR1 mutation to remove a potential deamidation site ... hzD6.3C VL N33Q (position 30c under Kabat), SEQ ID NO:15" (antibody, V domains shown, Synthetic sequence hzD6.3C VL) VL: DIVMTQTPLSLPVTPGEPASISCRSSQSIVHSQGNTYLEWYLQKPGQSPQLLIYKVSNRFSGVPDRFSGSGSGTDFTLKISRVEAEDVGVYYCFQGSHVPYTFGGGTKVEIK
no binding |  | hzD6.4C VL: "a FR1 and a CDR1 mutation (hzD6.4C VL I2V N33Q (positions 2 and 30c under Kabat), SEQ ID NO:16" (antibody, V domains shown, Synthetic sequence hzD6.4C VL) VL: DVVMTQTPLSLPVTPGEPASISCRSSQSIVHSQGNTYLEWYLQKPGQSPQLLIYKVSNRFSGVPDRFSGSGSGTDFTLKISRVEAEDVGVYYCFQGSHVPYTFGGGTKVEIK
 | more than 70% | hzD6.2C-mIgG2a: "an anti-Nectin-4 antibody (hzD6.2C-mIgG2a)" (antibody, V domains shown) VH: EVQLVESGGGLVQPGGSLRLSCAASGFTFSNYDMSWVRQAPGKGLEWVATISSGGSYTYYVDSVKGRFTISRDNAKNSLYLQMNSLRAEDTAVYYCARQELGSYYAMDYWGQGTTVTVSS VL: DIVMTQTPLSLPVTPGEPASISCRSSQSIVHSNANTYLEWYLQKPGQSPQLLIYKVSNRFSGVPDRFSGSGSGTDFTLKISRVEAEDVGVYYCFQGSHVPYTFGGGTKVEIK
